Results reported in patent US20080194020A1, “Methods For Producing Dendritic Cells That Have Acquired Ctl-Inducing Ability” (Medical and Biological Laboratories Co., Ltd., priority 2004, published 2008).

B1: OVA: Chicken ovalbumin used as an antigen model (protein)
chain: GSIGAASMEFCFDVFKELKVHHANENIFYCPIAIMSALAMVYLGAKDSTRTQINKVVRFDKLPGFGDSIEAQCGTSVNVHSSLRDILNQITKPNDVYSFSLASRLYAEERYPILPEYLQCVKELYRGGLEPINFQTAADQARELINSWVESQTNGIIRNVLQPSSVDSQTAMVLVNAIVFKGLWEKAFKDEDTQAMPFRVTEQESKPVQMMYQIGLFRVASMASEKMKILELPFASGTMSMLVLLPDEVSGLEQLESIINFEKLTEWTSSNVMEERKIKVYLPRMKMEEKYNLTSVLMAMGITDVFSSSANLSGISSAESLKISQAVHAAHAEINEAGREVVGSAEAGVDAASVSEEFRADHPFLFCIKHIATNAVLFFGRCVSP
B2: bOVA: OVA antigen recovered with streptavidin beads (biotin-labeled samples) (protein)
chain: GSIGAASMEFCFDVFKELKVHHANENIFYCPIAIMSALAMVYLGAKDSTRTQINKVVRFDKLPGFGDSIEAQCGTSVNVHSSLRDILNQITKPNDVYSFSLASRLYAEERYPILPEYLQCVKELYRGGLEPINFQTAADQARELINSWVESQTNGIIRNVLQPSSVDSQTAMVLVNAIVFKGLWEKAFKDEDTQAMPFRVTEQESKPVQMMYQIGLFRVASMASEKMKILELPFASGTMSMLVLLPDEVSGLEQLESIINFEKLTEWTSSNVMEERKIKVYLPRMKMEEKYNLTSVLMAMGITDVFSSSANLSGISSAESLKISQAVHAAHAEINEAGREVVGSAEAGVDAASVSEEFRADHPFLFCIKHIATNAVLFFGRCVSP
B3: OVA-KDEL: OVA with the endoplasmic reticulum localization sequence KDEL added to its C-terminus, SEQ ID NO: 14 (protein)
chain: MGSIGAASMEFCFDVFKELKVHHANENIFYCPIAIMSALAMVYLGAKDSTRTQINKVVRFDKLPGFGDSIEAQCGTSVNVHSSLRDILNQITKPNDVYSFSLASRLYAEERYPILPEYLQCVKELYRGGLEPINFQTAADQARELINSWVESQTNGIIRNVLQPSSVDSQTAMVLVNAIVFKGLWEKAFKDEDTQAMPFRVTEQESKPVQMMYQIGLFRVASMASEKMKILELPFASGTMSMLVLLPDEVSGLEQLESIINFEKLTEWTSSNVMEERKIKVYLPRMKMEEKYNLTSVLMAMGITDVFSSSANLSGISSAESLKISQAVHAAHAEINEAGREVVGSAEAGVDAASVSEEFRADHPFLFCIKHIATNAVLFFGRCVSPASAEDYEYPSRSNGTKNNTSQASKDEL

How the values were obtained:
DC2.4 cells [1] = experiment: MHC class I cross-presentation by DC2.4 cells to OT-I CD8+ T cells (IL-2 ELISA); type: cell-based, mouse; settings: for antigenicity for stimulation of CD8+ OT-I T cells: FIG. 8a, OVA compared with bOVA
From the text: Whether knock-down of cellular components involved in ERAD decreases the cross-presentation of exogenous OVA antigen was examined using a system for evaluating the level of antigen presentation, which uses naive CD8^+ T cells from OT-I mice and DC2.4 cells. The DC2.4 cells used as a model of dendritic cells are of the H-2Kb mouse MHC class I haplotype. OT-I (H-2Kb) mice are transgenic mice expressing a T cell receptor (TCRα and β) that recognizes an antigenic peptide (SIINFEKL) (SEQ ID NO: 15) derived from OVA presented on the H-2Kb molecules. The CD8^+ cells of OT-I mice are activated when they recognize OVA peptides presented by BMDCs derived from H-2Kb mice or by DC2.4 cells. When OVA or bOVA is incubated with and affixed onto DC2.4 cells and the cells are further incubated with naive CD8^+ T cells of OT-I mice, the amount of IL-2 produced by OT-I CD8^+ T cells serves as an index of T-cell stimulation as a result of OVA antigen presented by DC2.4 cells.
Parental or knocked-down DC2.4 cells were pre-incubated in a culture medium supplemented with 50 μg mL^−1 polymyxin B for 30 minutes in the presence or absence of lactacystin or MG-132, and incubated with OVA (250 μg mL^−1) or SIINFEKL peptides (10 ng mL^−1) for six hours. The cells were washed, fixed with 1% paraformaldehyde, and aliquoted into microtiter plates (5×10^4 per well). 5×10^4 CD8^+ T cells purified from splenocytes of OT-1 mice using magnetic beads were added to each well and after a 24-hour incubation, the IL-2 secretion was measured by ELISA (BD Biosciences) in triplicate.
DC2.4 cells were incubated with OVA (0, 50, or 250 μg/mL) in RPMI1640/10c% FCS for six hours at 37° C., in the presence or absence of pig-derived HSP90 (10 μg/mL). After washing away the antigen and HSP, OT-I CD8^+ T cells were added, cells were cultured overnight at 37° C., and the amount of IL-2 comprised in the supernatant was measured by the ELISA method.
The timing of the addition of HSP90 (10 μg/mL) and OVA (250 μg/mL) to DC2.4 cells was varied, and the effect on class I antigen presentation was observed. (i) HSP90 was added first, DC2.4 cells were washed, and then OVA was added. (ii) HSP90 and OVA were added simultaneously to DC2.4 cells. (iii) OVA was added first, and after washing DC2.4 cells, HSP90 was added. The results obtained under these three conditions were compared. […]
Under condition (i), HSP90 was added to DC2.4 cells, the cells were cultured for 30 minutes and then washed to remove HSP90. […] DC2.4 cells activated with OVA by the above procedure were plated in a 96-well plate, OT-I mouse-derived CD8^+ T cells were added to this, and after culturing overnight, the amount of IL-2 released into the supernatant was measured by ELISA. […]

DC2.4 cells [2] = experiment: MHC class II antigen presentation by DC2.4 cells to OT-II CD4+ T cells (IL-2 production); type: cell-based, mouse; settings: FIG. 9 control: DC2.4 cells cultured with OVA, no NH4Cl
Experimental: DC2.4 cells pretreated in the presence of NH4Cl were cultured with OVA, and then the stimulation of OT-I CD8^+ T cells in response to MHC class I antigen presentation (circles) and stimulation of OT-II CD4^+ T cells in response to MHC class II antigen presentation (triangles) was determined by measuring IL-2 production levels. IL-2 production level in the presence of NH4Cl was expressed as a ratio relative to the control (IL-2 production was 700 pg/mL relative to OT-I, and 20 pg mL relative to OT-II).

DC2.4 cells [3] = system: DC2.4 cells
Experimental: Intracellular localization of foreign antigens was examined by cell fractionation methods. Chicken ovalbumin (OVA) was used as an antigen model, and DC2.4 (haplotype H-2Kb), a cultured cell line of mouse dendritic cells, was used as a model for dendritic cells. […] BMDCs with a haplotype of H-2Kb, the same as that of DC2.4, were used as the control. BMDCs were induced from the bone marrow cells of C57BL/6 mice (SLC) in RPMI-1640 supplemented with 5% FCS using 5 ng/mL GM-CSF (MEL), and those cells purified by magnetic beads after five days of culturing were used.
DC2.4 cells made to take up bOVA antigens were suspended in 10 mM Tris-HCl (pH7.4) containing 250 mM sucrose, this was homogenized using glass beads, centrifuged for 30 minutes at 250,000×g, and then fractionated. The supernatant was used as the soluble fraction; the precipitates were suspended in the same buffer as described above and used as the microsomal fraction. A fixed amount was incubated in the presence or absence of 1% TritonX-100, and together with or without 100 μg mL^−1 trypsin. Before collecting bOVA, soybean trypsin inhibitor (Sigma) was added at 500 μg mL^−1.

DC2.4 cells [4] = experiment: Uptake of antigenic protein into DC2.4 cells; type: cell-based, mouse; settings: CHIP-knocked-down DC2.4 cells
Experimental: Next, DC2.4 cells were incubated for a set amount of time with OVA in the presence or absence of lactacystin (LC), and OVA taken up into the cells was measured. OVA taken up into cells in the presence or absence of Hsp90 was measured similarly.

DC2.4 cells [5] = experiment: Polyubiquitination of antigenic protein taken up by DC2.4 cells (SDS-PAGE, Western blot with anti-polyubiquitin antibody); type: cell-based, mouse
Experimental: There are reports that when the KDEL sequence (Lys-Asp-Glu-Leu) (SEQ ID NO: 3), an endoplasmic reticulum localization sequence, is added to the carboxyl terminus of a protein localized in the ER lumen, the protein is repeatedly transported between the ER and Golgi apparatus, and ERAD of that protein is promoted. Therefore, DC2.4 cells were made to take up OVA with KDEL (SEQ ID NO: 3) added to its C-terminus, and OVA that was polyubiquitinated after uptake was observed by SDS-PAGE and Western blotting. OVA to which a KDEL sequence (SEQ ID NO: 3) was added was constructed and expressed as follows: using a plasmid comprising a DNA sequence encoding OVA as a template, PCR was performed using oligo-1 (SEQ ID NO: 10) and oligo-2 (SEQ ID NO: 11) as primers. The amplified PCR product of approximately 1100 bp was introduced into a pCR-Blunt vector (Invitrogen) to obtain vector-1. Oligo-3 (SEQ ID NO: 12) and oligo-4 (SEQ ID NO: 13) were annealed, and the obtained gene fragment of approximately 100 bp was introduced into the pCR-Blunt vector to obtain vector-2. Vector-2 was digested with SpeI, the obtained gene fragment of approximately 130 bp was introduced into vector-1 that had been digested with NheI to obtain vector-3. An approximately 1250-bp gene fragment (OVA-KDEL) obtained when vector-3 was digested with BamHI/SpeI was introduced into a vector for gene expression, and then expressed. […]

Molecule	antigenicity for stimulation of CD8+ OT-I T cells (DC2.4 cells [1])	IL-2 production, OT-I CD8+ T cells (DC2.4 cells [1]; FIG. 9 control: DC2.4 cells cultured with OVA, no NH4Cl)	IL-2 production, OT-II CD4+ T cells (DC2.4 cells [2])	share of bOVA taken up by cells recovered as trypsin-resistant bOVA from the microsomal fraction (DC2.4 cells [3])	uptake of bOVA relative to parental DC2.4 cells (DC2.4 cells [4])	polyubiquitination of bOVA (DC2.4 cells [5]; CHIP-knocked-down DC2.4 cells)	antigen presentation level compared to OVA (OT-I CD8+ T cells) (DC2.4 cells [1]; DC2.4 cells, data not shown)	polyubiquitination of the substrate compared to OVA (DC2.4 cells [5]; DC2.4 cells made to take up OVA with KDEL added to its C-terminus)
B1	equally antigenic	700 pg/mL	20 pg·mL					
B2	equally antigenic			≥ 70%	about 70%	34%		
B3							clearly found to be stronger	significantly promoted polyubiquitination
